Test results taken from article PMC6555848, “Structural and functional consequences of the STAT5B^N642H driver mutation” (Nature Communications, 2019).

How the values were obtained:
[1] = molecular target: the molecule itself; test: crystal structure; unphosphorylated core fragment A136-Q703; two molecules per asymmetric unit; STAT5B 3.29 Å, STAT5B^N642H 3.21 Å
[2] = molecular target: the molecule itself; test: dynamic light scattering; 50 µM protein in 20 mM HEPES pH 7.4, 150 mM NaCl, 2% glycerol; unphosphorylated protein, self-association

Protein	binding result [1]	stoichiometry N [2]
human STAT5B core fragment (A136-Q703) (domain or fragment, UniProt P51692 136-703, looked up, human STAT5B core fragment A136-Q703 (printed once as S136-Q703), unphosphorylated; Two molecules per asymmetric unit; described as the unphosphorylated dimer; also called unphosphorylated STAT core fragment; source: E. coli BL21 (DE3) RILP, purified (Ni-NTA, Ulp1 cleavage, SEC); not shown: His, N-terminal, cleaved; SUMO, N-terminal, cleaved) AMSQKHLQINQTFEELRLVTQDTENELKKLQQTQEYFIIQYQESLRIQAQFGPLAQLSPQERLSRETALQQKQVSLEAWLQREAQTLQQYRVELAEKHQKTLQLLRKQQTIILDDELIQWKRRQQLAGNGGPPEGSLDVLQSWCEKLAEIIWQNRQQIRRAEHLCQQLPIPGPVEEMLAEVNATITDIISALVTSTFIIEKQPPQVLKTQTKFAATVRLLVGGKLNVHMNPPQVKATIISEQQAKSLLKNENTRNDYSGEILNNCCVMEYHQATGTLSAHFRNMSLKRIKRSDRRGAESVTEEKFTILFESQFSVGGNELVFQVKTLSLPVVVIVHGSQDNNATATVLWDNAFAEPGRVPFAVPDKVLWPQLCEALNMKFKAEVQSNRGLTKENLVFLAQKLFNNSSSHLEDYSGLSVSWSQFNRENLPGRNYTFWQWFDGVMEVLKKHLKPHWNDGAILGFVNKQQAHDLLINKPDGTFLLRFSDSEIGGITIAWKFDSQERMFWNLMPFTTRDFSIRSLADRLGDLNYLIYVFPDRPKDEVYSKYYTPVPCESATAKAVDGYVKPQ	binds	–
STAT5B^N642H core fragment (A136-Q703) (domain or fragment, human, UniProt P51692 136-703, looked up, human STAT5B core fragment A136-Q703 with the patient-derived mutation N642H; Two molecules per asymmetric unit; described as the unphosphorylated dimer; source: E. coli BL21 (DE3) RILP, purified (Ni-NTA, Ulp1 cleavage, SEC); not shown: His, N-terminal, cleaved; SUMO, N-terminal, cleaved) AMSQKHLQINQTFEELRLVTQDTENELKKLQQTQEYFIIQYQESLRIQAQFGPLAQLSPQERLSRETALQQKQVSLEAWLQREAQTLQQYRVELAEKHQKTLQLLRKQQTIILDDELIQWKRRQQLAGNGGPPEGSLDVLQSWCEKLAEIIWQNRQQIRRAEHLCQQLPIPGPVEEMLAEVNATITDIISALVTSTFIIEKQPPQVLKTQTKFAATVRLLVGGKLNVHMNPPQVKATIISEQQAKSLLKNENTRNDYSGEILNNCCVMEYHQATGTLSAHFRNMSLKRIKRSDRRGAESVTEEKFTILFESQFSVGGNELVFQVKTLSLPVVVIVHGSQDNNATATVLWDNAFAEPGRVPFAVPDKVLWPQLCEALNMKFKAEVQSNRGLTKENLVFLAQKLFNNSSSHLEDYSGLSVSWSQFNRENLPGRNYTFWQWFDGVMEVLKKHLKPHWNDGAILGFVNKQQAHDLLINKPDGTFLLRFSDSEIGGITIAWKFDSQERMFWHLMPFTTRDFSIRSLADRLGDLNYLIYVFPDRPKDEVYSKYYTPVPCESATAKAVDGYVKPQ	binds	–
full-length human STAT5B (M1-S787) (natural protein, UniProt P51692 1-787, looked up, human STAT5B, full length M1-S787, gene NCBI NM_012448.3, unphosphorylated; also called wild-type STAT5B; wild-type; source: E. coli BL21 (DE3) RILP, purified (Ni-NTA, Ulp1 cleavage, SEC); not shown: His, N-terminal, cleaved; SUMO, N-terminal, cleaved) MAVWIQAQQLQGEALHQMQALYGQHFPIEVRHYLSQWIESQAWDSVDLDNPQENIKATQLLEGLVQELQKKAEHQVGEDGFLLKIKLGHYATQLQNTYDRCPMELVRCIRHILYNEQRLVREANNGSSPAGSLADAMSQKHLQINQTFEELRLVTQDTENELKKLQQTQEYFIIQYQESLRIQAQFGPLAQLSPQERLSRETALQQKQVSLEAWLQREAQTLQQYRVELAEKHQKTLQLLRKQQTIILDDELIQWKRRQQLAGNGGPPEGSLDVLQSWCEKLAEIIWQNRQQIRRAEHLCQQLPIPGPVEEMLAEVNATITDIISALVTSTFIIEKQPPQVLKTQTKFAATVRLLVGGKLNVHMNPPQVKATIISEQQAKSLLKNENTRNDYSGEILNNCCVMEYHQATGTLSAHFRNMSLKRIKRSDRRGAESVTEEKFTILFESQFSVGGNELVFQVKTLSLPVVVIVHGSQDNNATATVLWDNAFAEPGRVPFAVPDKVLWPQLCEALNMKFKAEVQSNRGLTKENLVFLAQKLFNNSSSHLEDYSGLSVSWSQFNRENLPGRNYTFWQWFDGVMEVLKKHLKPHWNDGAILGFVNKQQAHDLLINKPDGTFLLRFSDSEIGGITIAWKFDSQERMFWNLMPFTTRDFSIRSLADRLGDLNYLIYVFPDRPKDEVYSKYYTPVPCESATAKAVDGYVKPQIKQVVPEFVNASADAGGGSATYMDQAPSPAVCPQAHYNMYPQNPDSVLDTDGDFDLEDTMDVARRVEELLGRPMDSQWIPHAQS	–	2
